Reference: PMC11433124

Molecular target: hRTL (Chondrilla australiensis tetramer lectin) (Chondrilla australiensis)
Assay: SEC + other: SDS-PAGE; gel permeation chromatography on Shodex KW 402.5-4F (HPLC, 0.33 mL/min) in 50 mM sodium bicarbonate in saline, 60 kDa; SDS-PAGE under non-reducing conditions after 3 min or 20 min heating at 80 °C, 66 kDa and 18 kDa; subunit mass 15,521.11 Da by MALDI-TOF-MS

stoichiometry N: 4
Substance: hRTL (Chondrilla australiensis tetramer lectin) (natural protein)
